These results are taken from US20220411514A1, “ANTI-GAL3 ANTIBODIES AND METHODS OF USE FOR INSULIN RESISTANCE” (TrueBinding, Inc., priority 2021, published 2022).

B1: 2D10.2B2 (antibody, V domains shown)
VH: QVQLQQSGPELVKPGASVKISCKASGYTFTDYYINWVKQRPGQGLEWIGWIYPGSNDTKYNEKFKGKATLTVDTSSSTAYMQLGSLTSEDSAVYFCANYFGCSGWFFDVWGTGTTVTVSS
VL: DIVMTQAAFSNPVTLGTSASISCRSSKSLLHSDGITYLYWYLQRPGQSPQLLIYRMSNLASGVPDRFSGSGSGTDFTLRISRVEAEDVGVYYCAQMIEFPLTFGAGTILELKR
B2: 4A11.2B5 (antibody, V domains shown)
VH: QVQLQQSGPELVKPGASVKISCKASGYSFTNYYIHWVKQRPGQGLEWIGWIYPGSGNTNYNEKFKGKATLTADTSSSTTNMQLSSLTSEDSAVYYCSTAPGGFDVWGSGTTVTVSS
VL: DIVMTQAAFSNPVTLGTSASISCRSSKSLLHSDGITYLYWYLQRPGQSPQLLIYRMSNLASGVPDRFSGSGSGTDFTLRISRVEAEDVGVYYCAQMLEFPLTFGAGTKLELKR
B3: 20D11.2C6 (antibody, V domains shown)
VH: EVQLQQSGPELVKPGASVKISCKASGYTFTDFYINWVKQSHGKSLEWIGDINPKNGGINYNPKFKIKATLTVDKSSSTSYMDLRGLTSEDSAVYYCTSGYGFPYWGQGTLVTVSA
VL: DIQMNQSPSSLSASLGDTITITCRASQNIYIWLSWYQQKPGNIPKLLIYKASNLHTGVPSRFSGSGSGTDFTLTISTLQPEDIATYFCLQGQSYPLTFGAGTKLEMKR
B4: 6H6.2D6 (antibody, V domains shown)
VH: QIQLVQSGPELKKPGETVKISCKASGYTFTTYGMSWVKQAPGKGLKWMAWINTYSGVPTYADDFKGRFAFSLETSASTAYLQINNLTNEDTATYFCARGPYAMDYWGQGTSVTVSS
VL: DIQMTQTTSSLSASLGDRVTISCSASQGISNYLNWYQQKPDGTVKLLIYYTSSLHSGVPSRFSGSGSGTDYSLTISNLEPEDIATYYCQQYSELPYTFGSGTKLEIKR

Human Galectin-3 protein (Acro Biosystems, GA3-H5129) (human), sequence (P17931 2-250): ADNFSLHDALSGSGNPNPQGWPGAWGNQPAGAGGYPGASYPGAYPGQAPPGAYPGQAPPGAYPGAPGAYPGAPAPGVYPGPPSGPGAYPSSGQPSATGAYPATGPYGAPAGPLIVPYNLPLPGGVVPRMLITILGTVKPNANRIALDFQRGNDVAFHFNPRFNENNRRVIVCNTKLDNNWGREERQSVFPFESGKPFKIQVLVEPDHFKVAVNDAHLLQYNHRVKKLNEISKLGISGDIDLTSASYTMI

The assay concerns the target Human Galectin-3 protein (Acro Biosystems, GA3-H5129) (human) (UniProt P17931). The assay is described as follows: ELISA, INSR binding to coated Gal3 with 3 ug/mL antibody. For orientation: An ELISA detects its analyte on a solid surface through an enzyme-linked reagent.
Molecule B1 registered a Gal3-INSR binding left, % of unblocked sample of less than 5%.

B2 came in with a Gal3-INSR binding left, % of unblocked sample of less than 5%.

Regarding B3, the Gal3-INSR binding left, % of unblocked sample was less than 5%.

B4 registered a Gal3-INSR binding left, % of unblocked sample of less than 5%.
